± gives the standard deviation of the averaged measurements.
System: ATP
Assay: switch fluorescence ratio, 500 uM ATP over buffer (Cy3 cluster intensity, sum of 5 cycles each) (fold (ratio)); higher = stronger signal-on switching upon ATP binding; sequences stand for … in TCGTCGGCAGCGTCAGATGTGTATAAGAGACAGTTTTTTTTTTTTTTTTTTTTTTTTT…TC
Conditions: aptamer strand: ATP DNA aptamer (quencher-CACCTGGGGGAGTATTGCGGAGGAAGG + anchor), 100 nM annealed; ATP concentration: 500 uM
Procedure, shortened: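 Clusters carrying Cy3-labelled switching strands on a modified Illumina MiSeq flow-cell were annealed to 100 nM quencher-labelled ATP aptamer and imaged in selection buffer. They were imaged again after 15 min with 500 uM ATP at 22 °C, over five buffer/ATP cycles with NaOH stripping and re-annealing in between. For each cluster, the fluorescence ratio is the summed Cy3 intensity of the target cycles divided by that of the buffer cycles, averaged per switch-domain sequence. Clusters outside 100-1000 RFU were left out.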
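Also: ATP exposure 15 min at 22 °C before imaging.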

Row | Sequence | switch fluorescence ratio
1 | GCATAGGGCG | 1.01 ± 0.018
2 | TGTTGGAGAG | 1.02 ± 0.02
3 | TTAAAGCCGG | 0.966 ± 0.061
4 | TACTGATTCA | 1.02 ± 0.025
5 | ATGCCAGGGA | 1.01 ± 0.023
6 | TTCCTAGTCT | 1.27 ± 0.19
7 | GTGGTGGGGG | 0.992 ± 0.034
8 | GTAGAAAGTA | 0.973 ± 0.031
9 | TTGAACGTGT | 0.994 ± 0.042
10 | ACTGTTTTTC | 1 ± 0.013
11 | ATTTTTATGA | 0.967 ± 0.015
12 | GGGAGTCGGG | 1.01 ± 0.0092
13 | TTGCCAGGGA | 0.995 ± 0.014
14 | GTTCTATCAT | 0.961 ± 0.022
15 | CTCAGAATAT | 1.046 ± 0.0086
16 | GGGGCCGAAT | 1.01 ± 0.021
17 | GAGAGTGCGG | 1.04 ± 0.0067
18 | CATAAGGCTC | 1 ± 0.02
19 | TTACTCATTT | 1.017 ± 0.0018
20 | GGCATAGCCC | 0.954 ± 0.024
21 | AGGACGGCCA | 0.998 ± 0.021
22 | TCTCTTATGT | 0.985 ± 0.033
23 | AGATCCGGGT | 0.992 ± 0.025

Row | Sequence | switch fluorescence ratio
24 | GGCATCGGTT | 0.977 ± 0.027
25 | TAGTGCGGGA | 1.02 ± 0.073
26 | ACATGGGGCG | 1 ± 0.054
27 | ACCAAGGGAG | 1.037 ± 0.0064
28 | TGATGAGGAG | 0.996 ± 0.014
29 | AAAATTTAGG | 0.986 ± 0.03
30 | CTCGGCGGAG | 1.026 ± 0.0082
31 | CAAATACGAT | 1.05 ± 0.04
32 | ACGTCGGGTG | 1.25 ± 0.15
33 | GGGGATTAGG | 0.988 ± 0.015
34 | CCGATCGTGG | 2.86 ± 1.9
35 | TCGGCTGTTG | 1 ± 0.028
36 | GTATGAATTA | 0.985 ± 0.033
37 | ATGGGGTAAC | 0.969 ± 0.011
38 | TTAATTTCTA | 0.9901 ± 0.0058
39 | GATAATTGTC | 0.951 ± 0.048
40 | AGGTTTGGAT | 0.991 ± 0.078
41 | TTGTCATTGG | 0.992 ± 0.019
42 | TGGCCGATGG | 0.986 ± 0.052
43 | GTTTGGCCAT | 1.02 ± 0.02
44 | TCGGGCCAGG | 1.1 ± 0.071
45 | CAAGGAGGGT | 0.9726 ± 0.0079
46 | TCGTTCTGAA | 0.974 ± 0.022

Row | Sequence | switch fluorescence ratio
47 | CTACTCCGTT | 1.29 ± 0.068
48 | TGGCGCCATT | 1 ± 0.072
49 | TCCTTATTGG | 1 ± 0.0068
50 | GTGGTAGAGC | 0.991 ± 0.033
51 | GGTTTGGGG | 1.03 ± 0.016
52 | CAATATCCCG | 1.05 ± 0.028
53 | TATAAGTATA | 1.02 ± 0.011
54 | GTTAGCTAGG | 1.04 ± 0.026
55 | AAAAGGGGG | 0.976 ± 0.018
56 | TTATAAGTGG | 0.9907 ± 0.0072
57 | CCGAATATGA | 1.55 ± 0.079
58 | TTACTTGGGT | 1.02 ± 0.052
59 | GGCAGAATAA | 1.05 ± 0.13
60 | GGTTTTATAT | 1.006 ± 0.0068
61 | ATTACGGTCT | 1.04 ± 0.02
62 | AGGCAGGGAT | 1.01 ± 0.057
63 | AAGCTCGCCG | 0.981 ± 0.06
64 | AAATGGTATC | 1.01 ± 0.028
65 | CGGGGTACGC | 1 ± 0.076
66 | CGGTGAGCGA | 1.03 ± 0.044
67 | GAGGGTTCGG | 0.972 ± 0.031
68 | AGATTATCGT | 1.007 ± 0.0088
69 | CAACAACATT | 1.07 ± 0.12

Row | Sequence | switch fluorescence ratio
70 | TGGGATGCAA | 1.04 ± 0.035
71 | AATGGGATTC | 0.9881 ± 0.009
72 | TTAACTCGGA | 0.996 ± 0.056
73 | GCTGGTTGCT | 0.994 ± 0.039
74 | GGTAAAAAGG | 0.971 ± 0.022
75 | AATACCGTT | 0.968 ± 0.055
76 | GCAGTTGGTG | 0.958 ± 0.043
77 | TCAGGGTTTC | 0.984 ± 0.013
78 | AATAAGCTCG | 0.9792 ± 0.0018
79 | ATAGGAGGTG | 1.07 ± 0.019
80 | AATAGTAGGG | 1.01 ± 0.017
81 | TAAAATGGGT | 0.996 ± 0.03
82 | CATTAATTTT | 0.968 ± 0.044
83 | GATCGATTG | 1.05 ± 0.051
84 | TTTACCGTCT | 1.04 ± 0.018
85 | TCCGCGGGGA | 1.52 ± 0.59
86 | GGCGCTTATA | 1 ± 0.042
87 | TTTAACGGGG | 0.987 ± 0.034
88 | ATGTTGGGTA | 0.982 ± 0.019
89 | TAAGAAAGTT | 1.41 ± 0.58
90 | GCGATCCTGT | 1.02 ± 0.015
91 | GCGATGTGAC | 1.22 ± 0.059
92 | AGGTTGGGGG | 0.981 ± 0.013

Row | Sequence | switch fluorescence ratio
93 | GGCCCCGGAT | 1 ± 0.07
94 | AGTTGAGGAA | 1 ± 0.026
95 | TTATAGTATG | 0.99 ± 0.043
96 | ACCGTGAGGC | 1.02 ± 0.088
97 | AGCTCGGGTA | 0.998 ± 0.025
98 | GCTGTCTGGT | 1.0181 ± 0.00043
99 | GCCGTTGTGC | 0.984 ± 0.069
100 | GCTTATGAAC | 1.019 ± 0.0045
101 | AAAAAGCGGT | 0.984 ± 0.029
102 | TTGTTTAATC | 1.036 ± 0.0097
103 | ATTATATCGG | 0.9981 ± 0.0031
104 | ATGCATAGGC | 0.983 ± 0.011
105 | CATAGAATTT | 0.978 ± 0.084
106 | GGGTATGCTG | 0.9479 ± 0.0067
107 | AATTGTTTAT | 0.9998 ± 0.0092
108 | ACTTGAGGGG | 1.03 ± 0.043
109 | GTCGGACGGA | 0.971 ± 0.042
110 | GTTGTTTAGC | 0.974 ± 0.022
111 | TTCCAGAATT | 0.993 ± 0.051
112 | TTCTATTACC | 1.01 ± 0.032
113 | ATGTCAAGGG | 0.9944 ± 0.0085
114 | AATAATAGGT | 1.016 ± 0.007
115 | TTTGTTTTTA | 1.02 ± 0.041

Row | Sequence | switch fluorescence ratio
116 | CTATTGAAGT | 0.9838 ± 0.0073
117 | CGTTGGGGTT | 1.02 ± 0.036
118 | GATTCGATCT | 0.993 ± 0.024
119 | ATGTGCCAGT | 0.962 ± 0.012
120 | TGAAGGGGGC | 0.994 ± 0.045
121 | TTTGGGGAGG | 1.02 ± 0.058
122 | TTAGGGTGTA | 1.01 ± 0.046
123 | CGATCGGTGG | 1.01 ± 0.058
124 | GGTTCAATTG | 1.03 ± 0.089
125 | TTTTTGCTAG | 0.986 ± 0.013
126 | ATAAGAACCG | 1.07 ± 0.017
127 | TTGGAGATTT | 1.02 ± 0.022
128 | AAACTCAACG | 1.08 ± 0.031
129 | ATGTAAAAGT | 0.986 ± 0.043
130 | AGGGGGTAGG | 0.978 ± 0.022
131 | ACGGAACAGC | 1.11 ± 0.13
132 | CCCGGCCATT | 1.05 ± 0.013
133 | TGGCAGTTTT | 1.02 ± 0.013
134 | ACGAGTAGGC | 0.986 ± 0.021
135 | TAGCCGTCTA | 1.058 ± 0.0034
136 | CGGGTATACT | 1.1 ± 0.092
137 | AGTAATTTTA | 1.04 ± 0.04
138 | GTGTTTTGTC | 1.02 ± 0.068

Row | Sequence | switch fluorescence ratio
139 | CTTAGGCCAC | 0.99 ± 0.024
140 | AATTACGGTG | 1.05 ± 0.022
141 | AGAAGCGCGG | 0.975 ± 0.044
142 | TGTGGACCAC | 1.04 ± 0.038
143 | AGGCCTTGTT | 0.974 ± 0.019
144 | GGAAGGAGAT | 1.003 ± 0.0093
145 | TATTCCTTTT | 1.01 ± 0.013
146 | TTTTCAGTAG | 0.9996 ± 0.0039
147 | ACTCTGGGGG | 1.07 ± 0.092
148 | CGTCGCGTAT | 1.03 ± 0.021
149 | TTAGAGTGGA | 0.968 ± 0.024
150 | GCACGTGGTC | 1.04 ± 0.019
151 | TCAAACGTAT | 1.06 ± 0.022
152 | ATAAAGACTT | 0.9755 ± 0.0058
153 | AATCAGACGG | 1.02 ± 0.021
154 | ATTTCGGCAC | 0.9959 ± 0.0091
155 | ACGTTTTTTT | 0.988 ± 0.035
156 | CGCTTAGGGT | 1.05 ± 0.07
157 | TTTGGTTAGT | 0.991 ± 0.023

Source: the supplement of paper PMC10126150
